According to paper PMC12160025, “Limitations of the radiotheranostic concept in neuroendocrine tumors due to lineage-dependent somatostatin receptor expression on hematopoietic stem and progenitor cells” (Theranostics, 2025):
Positions of bridges follow the written chain, without caps; N, C: chain ends. Non-standard residues stand in square brackets, D forms with d. Residues, ends and D or L forms follow the SMILES beside them. *: point of attachment. DOTA = O=C(O)CN1CCN(CC(=O)O)CCN(CC(=O)*)CCN(CC(=O)O)CC1; dPhe(4-NHCONH2) = NC(=O)Nc1ccc(C[C@@H](N)C(=O)O)cc1; Dihydroorotyl(S) = O=C1C[C@@H](C(=O)*)NC(=O)N1; Phe(4-Cl) = N[C@@H](Cc1ccc(Cl)cc1)C(=O)O; Phe(4-NH2) = Nc1ccc(C[C@H](N)C(=O)O)cc1

What was measured:
[1] = test system: human CD34+ HSPC subpopulations; test: Cell proliferation (CellTrace Violet) and cell death after radioligand treatment; assay type: cell-based; conditions: 50 kBq/well, 4 days
Description: BMMCs were thawed in 90% IMDM with GlutaMAX, 10% FBS, and 20 µg/ml DNAse. Cells were washed and resuspended in cold FACS buffer for CD34+ isolation using the Miltenyi Biotec CD34 MicroBead Kit (#130-046-702) as per manufacturer instructions. CellTrace™ Violet (CTV, Thermo Scientific, C34557) staining was conducted based on the CD34^+ cell count (0.05 µl CTV/ml/ 1,500,000 cells) to determine the number of divisions undergone by a cell at the time of analysis. Following a 20 min incubation at 37 °C, the cells were centrifuged and resuspended in serum-free medium composed of IMDM with GlutaMAX and 20% BIT9500 (Stem Cell Technologies, 09500) supplemented with three cytokines involved in stem cell maintenance: SCF (50 ng/ml, PeproTech, 300-07), TPO (12.5 ng/ml, PeproTech, 300-18), andFlt3-L (50 ng/ml, PeproTech, 300-19). 30,000 cells were seeded in 24-well plates and analyzed by flow cytometry either immediately (day 0) or after a 4-day incubation period at 37 °C with 5% CO2 (day 4) following 30 min antibody staining and additional 15 min Annexin V (APC) binding (Biolegend, 640920). The antibodies used were as follow: CD34-APC-Cy7 (Biolegend, 343514), CD38-FITC (Biolegend, 356610), CD90-PE-Cy5 (Biolegend, 328112), CD123-PE (Biolegend, 306006), CD45RA-PE-Cy7 (Biolegend, 202316).
For radioligand treatment, cells were treated with 50 kBq/well (500 µl/well; 200 MBq/nmol) of^ 177Lu-DOTA-TOC or ^177Lu-DOTA-JR11 for the entire incubation period of 4 days. […] Untreated cells served as controls. A total of n=16 samples were analyzed.
In this experiment, flow cytometry was conducted on a Miltenyi MACSQuant analyzer equipped with three lasers - blue (488 nm, 30 mW), red (640 nm, 20mW), and violet (405 nm, 40 mW). For each sample, 50,000 events were recorded. MACSQuantify™ Software was used for data acquisition and Flowjo 9.0-10.10 (BD Biosciences, USA) was employed for flow cytometric data analysis. […] To simplify the comparison between groups, we calculated a “proliferation score” per sample. The proliferation score was defined as the weighted sum of all proliferations using the formula: "Proliferation score = 1*(% one division) + 2*(% two divisions) + 3*(% three division) + 4*(% four division) + 5*(% five divisions) + 6*(% six division) + 7* (% > six divisions). A higher weighted sum indicated more cell proliferation events.

[2] = human, in vivo; cited from earlier work
[3] = human, in vivo; cited from earlier work; remark: listed apart in the source
[4] = high-sensitivity samples (n = 8)

Which “Cell death compared to untreated cells” value ([1]; HSPC subpopulations) does the source give for C[C@@H](O)[C@@H]1NC(=O)[C@H](CCCCN)NC(=O)[C@@H](Cc2ccc(NC(N)=O)cc2)NC(=O)[C@H](Cc2ccc(NC(=O)[C@@H]3CC(=O)NC(=O)N3)cc2)NC(=O)[C@H](NC(=O)[C@H](Cc2ccc(Cl)cc2)NC(=O)CN2CCN(CC(=O)O)CCN(CC(=O)O)CCN(CC(=O)O)CC2)CSSC[C@@H](C(=O)N[C@H](Cc2ccc(O)cc2)C(N)=O)NC1=O [^177Lu-DOTA-JR11, metal not drawn] ({DOTA}-[Phe(4-Cl)][dC][Phe(4-NH2)](Dihydroorotyl(S))[dPhe(4-NHCONH2)]KTC[dY]-NH2; disulfide 2-7 (inferred); C-terminus assumed) here?
Its value is “highest rates of cell death”.

And the “Proliferation compared to untreated cells, across all subpopulations” value ([1]; n = 16, all HSPC subpopulations)?
The value was 69-79%.

What about the “Proliferation in HSC relative to untreated, mean ± SD” value [1, 4] of the same compound?
The value was 42 ± 17%.

What about the “Proliferation in HSC relative to untreated, median” value [1, 4] of the same compound?
Its value is 44%.

What about the “Patients with prolonged grade 4 hematotoxicity” value [2] of the same compound?
Its value is 4 of 7.

And the “Incidence of t-MN” value [3]?
Its value is 5%.

And the “Patients with t-MN” value [3]?
The value was 2/40.
